Patent US20100048677A1 (NEW YORK BLOOD CENTER, published 2010)

Molecular target: αIIb (INTEGRIN, ALPHA 2B; PLATELET GLYCOPROTEIN IIB OF IIB/IIIA COMPLEX, ANTIGEN CD41) (human) (UniProt P08514)
Assay: αIIb complexes captured, mass spectrometry; No. Expts 1

Sequence of UniProt Q8IYS1 (Q8IYS1 whole entry): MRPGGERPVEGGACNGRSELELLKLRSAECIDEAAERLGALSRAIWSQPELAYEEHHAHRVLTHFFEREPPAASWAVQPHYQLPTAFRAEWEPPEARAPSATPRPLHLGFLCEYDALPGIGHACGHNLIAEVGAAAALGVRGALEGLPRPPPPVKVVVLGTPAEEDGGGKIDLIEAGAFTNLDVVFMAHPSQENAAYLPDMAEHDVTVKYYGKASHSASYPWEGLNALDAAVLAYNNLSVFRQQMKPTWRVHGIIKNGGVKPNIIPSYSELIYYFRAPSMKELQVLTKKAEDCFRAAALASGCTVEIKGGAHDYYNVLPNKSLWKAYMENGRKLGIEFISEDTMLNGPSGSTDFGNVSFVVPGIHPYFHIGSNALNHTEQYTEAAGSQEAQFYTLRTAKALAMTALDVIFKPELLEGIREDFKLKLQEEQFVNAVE

| #Peptides [peptides] | Substance |
| --- | --- |
| 2 | ATP SYNTHASE, H+ TRANSPORTING, MITOCHONDRIAL F1 COMPLEX, ALPHA SUBUNIT 1, CARDIAC MUSCLE (from UniProt P25705 44-553) |
| 3 | DEAH (ASP-GLU-ALA-HIS) BOX PO… 38 (from UniProt Q92620 2-1227) |
| 11 | POLYMERASE (DNA-DIRECTED), DELTA … PROTEIN 2 (from UniProt Q9Y2S7 52-368) |
| 2 | PDZ AND LIM DOMAIN 7 (ENIGMA) (from UniProt Q9NR12 1-457) |
| 3 | MYELOPEROXIDASE (from UniProt P05164 165-745) |
| 4 | HYPOTHETICAL PROTEIN FLJ22184 |
| 5 | CULLIN 5 (from UniProt Q93034 1-780) |
| 4 | PEROXIREDOXIN 3 (from UniProt P30048 62-256) |
| 8 | ATAXIN 2-LIKE (from UniProt Q8WWM7 1-1075) |
| 9 | ADP-… GLUCOKINASE (from UniProt Q9BRR6 23-497) |
| 14 | TUBULIN, BETA 4 (from UniProt P04350 1-444) |
| 20 | MALIC ENZYME 2, NAD(+)-…, MITOCHONDRIAL (from UniProt P23368 19-584) |
| 2 | CORONIN, ACTIN BINDING PROTEIN, 1A (from UniProt P31146 2-461) |
| 3 | LUC7L2 (CGI-59 PROTEIN) (from UniProt Q9Y383 1-392) |
| 6 | SERPINE1 MRNA BINDING PROTEIN 1 (from UniProt Q8NC51 2-408) |
| 2 | SRY (SEX … REGION Y)-BOX 6 (from UniProt P35712 1-828) |

| #Peptides [peptides] | Substance |
| --- | --- |
| 2 | PROTEIN PHOSPHATASE 1, … SUBUNIT, ALPHA ISOFORM (from UniProt P62136 2-330) |
| 2 | …-TRNA … 2 (from UniProt Q96I59 15-477) |
| 9 | CARS2 (HYPOTHETICAL PROTEIN FLJ12118) (from UniProt Q9HA77 1-564) |
| 3 | KERATIN 19 (from UniProt P08727 1-400) |
| 2 | CYCLIN B2 (from UniProt O95067 1-398) |
| 4 | CITRON (RHO-…, SERINE/THREONINE KINASE 21) (from UniProt O14578 1-2027) |
| 2 | ALPHA-2-MACROGLOBULIN (from UniProt P01023 24-1474) |
| 15 | HEAT SHOCK 70 kDa PROTEIN 1A (from UniProt P0DMV8 2-641) |
| 5 | ISOCITRATE DEHYDROGENASE 3 (NAD+) ALPHA (from UniProt P50213 28-366) |
| 16 | LECTIN, MANNOSE-BINDING, 1 (from UniProt P49257 31-510) |
| 5 | CORTACTIN (from UniProt Q14247 1-550) |
| 3 | SEMENOGELIN I (from UniProt P04279 24-462) |
| 2 | CYCLIN G1 (from UniProt P51959 1-295) |
| 3 | GLUCO… AER61 (from UniProt Q5NDL2 18-527) |
| 4 | SPLICING FACTOR 1 (from UniProt Q15637 2-639) |
| 8 | AMINOLEVULINATE, DELTA-, … (from UniProt P13716 1-330) |

Further lines, the substance ahead of its results:

| Substance | #Peptides [peptides] |
| --- | --- |
| U2(RNU2) SMALL NUCLEAR RNA AUXILIARY FACTOR 1 (from UniProt Q01081 2-240) | 1 |
| MITOGEN-… PROTEIN KINASE KINASE KINASE 7 … PROTEIN 2 (from UniProt Q9NYJ8 1-693) | 2 |
| GLUTAMATE RECEPTOR, IONOTROPIC, N-METHYL D-… 2D (from UniProt O15399 28-1336) | 2 |
| SODIUM CHANNEL, VOLTAGE-GATED, TYPE X, ALPHA (from UniProt Q9Y5Y9 1-1956) | 11 |
| ALDO-KETO REDUCTASE FAMILY 7, MEMBER A2 (AFLATOXIN ALDEHYDE REDUCTASE) (from UniProt O43488 39-359) | 19 |
| SIN3A-ASSOCIATED PROTEIN, 130 kDa (from UniProt Q9H0E3 1-1048) | 5 |
| CASEIN KINASE 2, ALPHA PRIME PO… (from UniProt P19784 1-350) | 3 |
| ZINC FINGER PROTEIN 300 (from UniProt Q96RE9 1-604) | 3 |
| …-… 9 (from UniProt Q86TI2 2-863) | 20 |
| HTRA SERINE … 2 (from UniProt O43464 134-458) | 8 |
| FERM AND PDZ DOMAIN CONTAINING 1 (from UniProt Q5SYB0 1-1578) | 4 |
| PYRUVATE KINASE, MUSCLE (from UniProt P14618 2-531) | 13 |
| … EXPRESSED 10 (from UniProt Q86TG7 1-708) | 3 |
| HETEROGENEOUS NUCLEAR RIBONUCLEOPROTEIN H1 (from UniProt P31943 1-449) | 9 |
| SEC13-LIKE 1 (S. …) (from UniProt P55735 2-322) | 3 |
| CHD9 (HYPOTHETICAL PROTEIN BC022889) (from UniProt Q3L8U1 1-2897) | 7 |

| Substance | #Peptides [peptides] |
| --- | --- |
| EUKARYOTIC ELONGATION FACTOR-2 KINASE (from UniProt O00418 2-725) | 4 |
| KINESIN FAMILY MEMBER 14 (from UniProt Q15058 1-1648) | 7 |
| PROTEIN KINASE, AMP-…, BETA 1 NON-… SUBUNIT (from UniProt Q9Y478 2-270) | 9 |
| RAN BINDING PROTEIN 10 (from UniProt Q6VN20 2-620) | 2 |
| REGULATION OF NUCLEAR pre-mRNA DOMAIN CONTAINING 1A (from UniProt Q96P16 2-312) | 7 |
| …-3-PHOSPHATE DEHYDROGENASE (from UniProt P04406 2-335) | 3 |
| AMINOACYLASE 1-LIKE 2 (from UniProt Q8IYS1 1-436) | 13 |
| … (from UniProt P02787 20-698) | 7 |
| TUBULIN, BETA 2C (from UniProt P68371 1-445) | 36 |
| CHAPERONIN CONTAINING TCP1, SUBUNIT 7 (ETA) (from UniProt Q99832 1-543) | 11 |
| RAB … LYSOSOMAL PROTEIN-LIKE 1 (from UniProt Q5EBL4 1-403) | 7 |
| PROTEIN KINASE, AMP-…, GAMMA 1 NON-… SUBUNIT (from UniProt P54619 1-331) | 12 |
| RAVER1 (from UniProt Q8IY67 2-606) | 2 |
| …, DSH HOMOLOG 2 (DROSOPHILA) (from UniProt O14641 1-736) | 3 |
| ZINC FINGER PROTEIN 703 (from UniProt Q9H7S9 2-590) | 2 |
| HEAT SHOCK 70 kDa PROTEIN 9B (MORTALIN-2) (from UniProt P38646 47-679) | 11 |

Molecular target: αIIb (INTEGRIN, ALPHA 2B; PLATELET GLYCOPROTEIN IIB OF IIB/IIIA COMPLEX, ANTIGEN CD41) (human) (UniProt P08514)
Assay: αIIb complexes captured, mass spectrometry; No. Expts 2

| #Peptides [peptides] | Substance |
| --- | --- |
| 30 | DYNAMIN BINDING PROTEIN (from UniProt Q6XZF7 1-1577) |
| 52 | TUBULIN, BETA (from UniProt P07437 1-444) |
| 16 | ALDEHYDE DEHYDROGENASE 18 FAMILY, MEMBER A1 (from UniProt P54886 1-795) |
| 68 | DEAH (ASP-GLU-ALA-HIS) BOX PO… 15 (from UniProt O43143 1-795) |
| 34 | 5′-NUCLEOTIDASE DOMAIN CONTAINING 2 (from UniProt Q9H857 1-520) |
| 11 | HEAT SHOCK 70 kDa PROTEIN 8 (from UniProt P11142 2-646) |
| 20 | CHAPERONIN CONTAINING TCP1, SUBUNIT 2 (BETA) (from UniProt P78371 2-535) |

Continued, substance first:

| Substance | #Peptides [peptides] |
| --- | --- |
| HETEROGENEOUS NUCLEAR RIBONUCLEOPROTEIN L (from UniProt P14866 1-589) | 26 |
| FILAMIN A, ALPHA (ACTIN BINDING PROTEIN 280) (from UniProt P21333 2-2647) | 14 |

Molecular target: αIIb (INTEGRIN, ALPHA 2B; PLATELET GLYCOPROTEIN IIB OF IIB/IIIA COMPLEX, ANTIGEN CD41) (human) (UniProt P08514)
Assay: αIIb complexes captured, mass spectrometry; No. Expts 3

| #Peptides [peptides] | Substance |
| --- | --- |
| 20 | THIOREDOXIN DOMAIN CONTAINING 4 (ENDOPLASMIC RETICULUM) (from UniProt Q9BS26 30-406) |
| 7 | SHROOM3 F-ACTIN BINDING PROTEIN (from UniProt Q8TF72 1-1996) |
| 22 | PLASMINOGEN (from UniProt P00747 20-810) |
| 83 | GLUTAMATE DEHYDROGENASE 1 (from UniProt P00367 54-558) |
| 62 | KIAA1529 (from UniProt Q9P1Z9 1-1701) |

Molecular target: αIIb (INTEGRIN, ALPHA 2B; PLATELET GLYCOPROTEIN IIB OF IIB/IIIA COMPLEX, ANTIGEN CD41) (human) (UniProt P08514)
Assay: αIIb complexes captured, mass spectrometry; No. Expts 4

| #Peptides [peptides] | Substance |
| --- | --- |
| 65 | ASPARTYL-TRNA … (from UniProt P14868 1-501) |

Molecular target: αIIbβ3 (human) (UniProt P08514)
Assay: antibody staining of UCB-derived megakaryocytes, after thrombin receptor-activating peptide

| percentage of UCB cells recognized [%] | Substance |
| --- | --- |
| 16 | PAC1, an activation-dependent, ligand-mimetic anti-αIIbβ3 monoclonal antibody |

Molecular target: αIIbβ3 (human) (UniProt P08514)
Assay: antibody staining of UCB-derived megakaryocytes, before thrombin receptor-activating peptide

| percentage of UCB cells recognized [%] | Substance |
| --- | --- |
| 3 | PAC1, an activation-dependent, ligand-mimetic anti-αIIbβ3 monoclonal antibody |
